Experimental data reported in the Human Domainome abundance scans (Beltran et al. 2025).
± gives the uncertainty stated by the source.

B1: Glucocorticoid receptor, residues 419 to 494; numbered along this chain, P04150 (parent)
chain: KLCLVCSDEASGCHYGVLTCGSCKVFFKRAVEGQHNYLCAGRNDCIIDKIRRKNCPACRYRKCLQAGMNLEARKTK

Variants of: B1
Test: abundance fitness (aPCA) (normalised: wild type 0, dead -1); higher = more abundant; growth selection in yeast, the domain comes from the species named
Conditions: Homo sapiens

Variant | abundance fitness
KLCLVCSDEASGCHYGVLTCGSCKVFFKRAVEGQHNYLCAGRVDCIIDKIRRKNCPACRYRKCLQAGMNLEARKTK | -0.285 ± 0.044
KLCLVISDEASGCHYGVLTCGSCKVFFKRAVEGQHNYLCAGRNDCIIDKIRRKNCPACRYRKCLQAGMNLEARKTK | -0.751 ± 0.16
KLCLVCSDEASGCHYGVLTCGSCKVFFKRAVEGQHNYLCAGRNDCIIDKIRRKNCPACRYRKCLQAGRNLEARKTK | -0.719 ± 0.059
KLCLVCSDEASGCHYGVLTCGSCKVFFKRAVEGQHNYLCAGRNDCIIDKIRRKNDPACRYRKCLQAGMNLEARKTK | -1.13 ± 0.33
KLCLVCSDEASGCHYGVLTCGSCKVFFKRAVEGQHNYLCAGRNDCIIDKIRRKNCPACRYRKCLAAGMNLEARKTK | -0.019 ± 0.038
KLCLVCSDEASGCHYGVLTCGSCKVFFKRVVEGQHNYLCAGRNDCIIDKIRRKNCPACRYRKCLQAGMNLEARKTK | 0.026 ± 0.037
KLCLVCSDEASGCHYGVLTCGSCKVFFKRAVEGQHNYLCAGRNDCIIDKIRRKNCPACRYRKCLQAGMNLEARGTK | -0.006 ± 0.037
KLCLVCSDEASGCHYGVLTCGSCKVFFKRAVEGQHNYLCAGRNDCIIDKIRRKNCPACRYRKCLQAGMNLEARNTK | -0.01 ± 0.094
KLCLVCSDEASGCHYGVLTCGSCKGFFKRAVEGQHNYLCAGRNDCIIDKIRRKNCPACRYRKCLQAGMNLEARKTK | 0.008 ± 0.054
KLCLVCSDEASGCHYGVLTCGSCKVFFKRAVEGQHNYLCAGRNDCIIDKIRRKNCPADRYRKCLQAGMNLEARKTK | -0.872 ± 0.42
KLCLVCSDEASGCHYGVLTCGSCKVFFKRAVEGQHNYLCAGRNDCIIDKIRRKNCPACRYRKCLQAGMNLEAPKTK | -0.007 ± 0.048
KLCLVCSDEASGCHYGVLTCGSCKVFFKRAVEGQHNYLCAGRNDCIIDKIRRKNCPACRYRKCLQAGMNLEANKTK | -0.133 ± 0.084
KLCLVCSDEASGCHYGVLTCGSCKVFFKRAVEGQHNYLCAGRNDCIIDKIRWKNCPACRYRKCLQAGMNLEARKTK | -0.112 ± 0.04
KLCLVCSDEASGCHYGVLTCGSCKVFFKRAVEGQHNYLCAGRNDCIIDKIRVKNCPACRYRKCLQAGMNLEARKTK | -0.056 ± 0.036
KLCLVCSDEASGCHYGVLTCGSCKVFFKRAVEGQHNYLCAGRNDCIIDKIRRKNCPACRYRKCCQAGMNLEARKTK | 0.025 ± 0.052
GLCLVCSDEASGCHYGVLTCGSCKVFFKRAVEGQHNYLCAGRNDCIIDKIRRKNCPACRYRKCLQAGMNLEARKTK | -0.123 ± 0.047
KLCLVCSDEASGCHYGVLTCGSCKVFFKRAVEEQHNYLCAGRNDCIIDKIRRKNCPACRYRKCLQAGMNLEARKTK | -0.039 ± 0.052
KLCLVCSDEASGCHYGVLTCGSCKVFFKRAVEGQHNYLCAGANDCIIDKIRRKNCPACRYRKCLQAGMNLEARKTK | 0.01 ± 0.035

Variant | abundance fitness
KLCLVCSDEASGCHYGVLTCGSCKVFFKRAVEGQHNYLCAGSNDCIIDKIRRKNCPACRYRKCLQAGMNLEARKTK | 0.001 ± 0.035
KLCLVCSDEASGCHYGVLTCGSCKVFFKRAVEGQHNYLCCGRNDCIIDKIRRKNCPACRYRKCLQAGMNLEARKTK | -0.137 ± 0.076
KLCLVCSDEASGCHYGVLTCGSCKVFFKRAFEGQHNYLCAGRNDCIIDKIRRKNCPACRYRKCLQAGMNLEARKTK | -0.007 ± 0.058
KLCLVCSDEASGCHYGVLTCGSCKVFFKRACEGQHNYLCAGRNDCIIDKIRRKNCPACRYRKCLQAGMNLEARKTK | -0.016 ± 0.054
KLCLVCSDEASGCHYGVLTCGSCKVFFKRAVEGQHNTLCAGRNDCIIDKIRRKNCPACRYRKCLQAGMNLEARKTK | -0.084 ± 0.052
KLCLVCSDEASGCHYGVLTCGSCKVFFKRAVEGQHTYLCAGRNDCIIDKIRRKNCPACRYRKCLQAGMNLEARKTK | -0.008 ± 0.046
KLFLVCSDEASGCHYGVLTCGSCKVFFKRAVEGQHNYLCAGRNDCIIDKIRRKNCPACRYRKCLQAGMNLEARKTK | -0.719 ± 0.29
KLCLVCSDEASGCHYGVLTCGSCKVFFKRAVEGQHNYLCAGRNDCYIDKIRRKNCPACRYRKCLQAGMNLEARKTK | 0.029 ± 0.052
KLCLVCSDEASGCHYGVLTCGSCKVFFKRAVEGQHNYLCAGRNDCIIDKIRRKNCCACRYRKCLQAGMNLEARKTK | 0.052 ± 0.05
KLCLVCSDEASGCHYGVLTCGSCKVFFKRAVEGQHNYLCAGRNDCIIDKIRRKNCNACRYRKCLQAGMNLEARKTK | 0.013 ± 0.056
KLCLVCSDSASGCHYGVLTCGSCKVFFKRAVEGQHNYLCAGRNDCIIDKIRRKNCPACRYRKCLQAGMNLEARKTK | 0.032 ± 0.036
KLCLVCSDEASGCHYGVLTCGPCKVFFKRAVEGQHNYLCAGRNDCIIDKIRRKNCPACRYRKCLQAGMNLEARKTK | -0.06 ± 0.38
KLCLVCSDEASGCHYGVLTCGSCKVFFKRAVEGQHNYLCAGRNDCIIDKIRRKNCPACRYRKNLQAGMNLEARKTK | -0.667 ± 0.21
KLCLVCSDEASGCHYGVLTCGSCKVFFKRAVEGQHNYLCAGRNDCIIDKIRRKNCPACRYRKWLQAGMNLEARKTK | -0.889 ± 0.12
KLCLVCSDEASGCHYGVLTCGSCKVFFKRAVEGQHNYLCAGRNDCIIDKIRRKNCPKCRYRKCLQAGMNLEARKTK | -0.06 ± 0.047
KLCLVCSDEASGCHYGVLTCGSCKVFFKRAVEGQHNYLCAGRNDCIIDKPRRKNCPACRYRKCLQAGMNLEARKTK | 0.081 ± 0.07
KLCLVCSDEASGCHYGVLTCGSCKVFFKRAVEGQHNYLCAGRNDCIIDKMRRKNCPACRYRKCLQAGMNLEARKTK | 0.055 ± 0.048
KLCLVCSDEASGCHYGVLTCGSCKVFFKRAVEGQHNYLCAGRNMCIIDKIRRKNCPACRYRKCLQAGMNLEARKTK | 0 ± 0.072
